Laboratory results as given in patent publication US9492510B2, “Composition and method for inhibiting tumor cell growth” (St. Jude Children's Research Hospital, priority 2006, dated 2016).

B1: secreted form of hCE1mut6: mutant human CE lacking the six C-terminal amino acid residues (Thr-Glu-His-Ile-Glu-Leu); expressed from pIRESmut6C (protein)
chain: MWLRAFILATLSASAAWGHPSSPPVVDTVHGKVLGKFVSLEGFAQPVAIFLGIPFAKPPLGPLRFTPPQPAEPWSFVKNATSYPPMCTQDPKAGQLLSELFTNRKENIPLKLSEDCLYLNIYTPADLTKKNRLPVMVWIHGGGLMVGAASTYDGLALAAHENVVVVTIQYRLGIWGFFSTGDEHSRGNWGHLDQVAALRWVQDNIASFGGNPGSVTIFGESAGGESVSVLVLSPLAKNLFHRAISESGVALTSVLVKKGDVKPLAEQIAITAGCKTTTSAVMVHCLRQKTEEELLETTLKMKFLSLDLQGDPRESQPLLGTVIDGMLLLKTPEELQAERNFHTVPYMVGINKQEFGWIIPMQMLGYPLSEGQLDQKTAMSLLWKSYPLVCIAKELIPEATEKYLGGTDDTVKKKDLFLDLIADVMFGVPSVIVARNHRDAGAPTYMYEYRYRPSFSSDMRPKTVIGDHGDELFSVFGAPFLKEGASEEEIRLSKMVMKFWANFARNGNPNGEGLPHWPEYNQKEGYLQIGANTQAAQKLKDKEVAFWTNLFAKKAVEKPPQ
modifications: Synthethic mutant human carboxylesterase
notes: mutant human CE lacking the six C-terminal amino acid residues (Thr-Glu-His-Ile-Glu-Leu); expressed from pIRESmut6C
B2: hCE1: wild-type human liver carboxylesterase, Genbank M73499 (protein, listed as Homo sapiens)
chain: MWLRAFILATLSASAAWGHPSSPPVVDTVHGKVLGKFVSLEGFAQPVAIFLGIPFAKPPLGPLRFTPPQPAEPWSFVKNATSYPPMCTQDPKAGQLLSELFTNRKENIPLKLSEDCLYLNIYTPADLTKKNRLPVMVWIHGGGLMVGAASTYDGLALAAHENVVVVTIQYRLGIWGFFSTGDEHSRGNWGHLDQVAALRWVQDNIASFGGNPGSVTIFGESAGGESVSVLVLSPLAKNLFHRAISESGVALTSVLVKKGDVKPLAEQIAITAGCKTTTSAVMVHCLRQKTEEELLETTLKMKFLSLDLQGDPRESQPLLGTVIDGMLLLKTPEELQAERNFHTVPYMVGINKQEFGWLIPMLMSYPLSEGQLDQKTAMSLLWKSYPLVCIAKELIPEATEKYLGGTDDTVKKKDLFLDLIADVMFGVPSVIVARNHRDAGAPTYMYEFQYRPSFSSDMKPKTVIGDHGDELFSVFGAPFLKEGASEEEIRLSKMVMKFWANFARNGNPNGEGLPHWPEYNQKEGYLQIGANTQAAQKLKDKEVAFWTNLFAKKAVEKPPQTEHIEL
B3: rCE: wild-type rabbit liver carboxylesterase, Genbank AF036930 (protein, listed as Oryctolagus cuniculus)
chain: GSLRFAPPQPAESWSHVKNTTSYPPMCSQDAVSGHMLSELFTNRKENIPLKFSEDCLYLNIYTPADLTKRGRLPVMVWIHGGGLMVGGASTYDGLALSAHENVVVVTIQYRLGIWGFFSTGDEHSRGNWGHLDQVAALRWVQDNIANFGGDPGSVTIFGESAGGQSVSILLLSPLTKNLFHRAISESGVALLSSLFRKNTKSLAEKIAIEAGCKTTTSAVMVHCLRQKTEEELMEVTLKMKFMALDLVGDPKENTAFLTTVIDGVLLPKAPAEILAEKKYNMLPYMVGINQQEFGWIIPMQMLGYPLSEGKLDQKTATELLWKSYPIVNVSKELTPVATEKYLGGTDDPVKKKDLFLDMLADLLFGVPSVNVARHHRDAGAPTYMYEYRYRPSFSSDMRPKTVIGDHGDEIFSVLGAPFLKEGATEEEIKLSKMVMKYWANFARNGNPNGEGLPQWPAYDYKEGYLQIGATTQAAQKLKDKEVAFWTELWAKEAARPRETEHIEL
B4: hCE1 variant hCE1m6 (hCE1mut6; L362M, M363L, K459R, F448Y, Q449R, L358I, S364G, Q362 insertion), SEQ ID NO:3 (Homo sapiens; … (protein)
chain: GHPSSPPVVDTVHGKVLGKFVSLEGFAQPVAIFLGIPFAKPPLGPLRFTPPQPAEPWSFVKNATSYPPMCTQDPKAGQLLSELFTNRKENIPLKLSEDCLYLNIYTPADLTKKNRLPVMVWIHGGGLMVGAASTYDGLALAAHENVVVVTIQYRLGIWGFFSTGDEHSRGNWGHLDQVAALRWVQDNIASFGGNPGSVTIFGESAGGESVSVLVLSPLAKNLFHRAISESGVALTSVLVKKGDVKPLAEQIAITAGCKTTTSAVMVHCLRQKTEEELLETTLKMKFLSLDLQGDPRESQPLLGTVIDGMLLLKTPEELQAERNFHTVPYMVGINKQEFGWIIPMQMLGYPLSEGQLDQKTAMSLLWKSYPLVCIAKELIPEATEKYLGGTDDTVKKKDLFLDLIADVMFGVPSVIVARNHRDAGAPTYMYEYRYRPSFSSDMRPKTVIGDHGDELFSVFGAPFLKEGASEEEIRLSKMVMKFWANFARNGNPNGEGLPHWPEYNQKEGYLQIGANTQAAQKLKDKEVAFWTNLFAKKAVEKPPQTEHIEL

Columns and labels:
[1] = tested on: U373MG cells; assay: Growth inhibition by CPT-11 of U373MG cells; format: cell-based, human; conditions: for sensitization of cells to CPT-11: U373MG cells expressing the labelled enzyme
Description: Experiments were also performed in human brain tumor cells (U373MG) where the growth of the cells was examined in cells that expressed the mutant form of the human CE enzyme.
Experiments were also performed to determine whether cells expressing a secreted form of hCElm6 (SEQ ID NO:16) produced media that had CE activity.
(§1) Transfection of Cell Lines. Transient transfection of Cos7 cells was achieved by electroporation (Potter, et al. 1998. Cancer Res. 52:2646-2651). For the generation of stable cell lines, cDNAs were ligated into pIRESneo and U373MG cells were electroporated under similar conditions. Transfectants were selected in media containing 400 μg/ml of G418. Since the CE cDNA was linked via an internal ribosome entry sequence (IRES) to the neomycin gene, selection of individual G418-resistant clones was not necessary.
(§2) Construction of Adenovirus. Replication-deficient adenovirus expressing hCElm6 or rCE were constructed using standard protocols (Wierdl, et al. 2001. Cancer Res. 61:5078-5082). Multiplicity of infection (moi) was defined as the number of plaques produced in 1×10^6 293 cells in a total volume of 1 ml of media after incubation with virus for 1 hour.
Growth Inhibition Assays.

[2] = CE activity (o-NPA) in human tumor cell lines expressing CE after plasmid transfection or adenoviral transduction; format: biochemical; conditions: for CE Activity: ± SD, U373MG cells stably transfected (pIRESneo) expressing the enzyme
Excerpt: […], it was observed that expression of hiCE following plasmid-mediated transfection was frequently lower than that seen with rCE or […]. […] Since expression of the transgene from this expression vector is co-regulated with the neo gene via an IRES sequence, selection with similar concentrations of G418 should result in cell lines that express approximately equal levels of recombinant protein. However, the average levels of CE activity in U373hiCE, U373hCE1 and U373hCE1m6 cells were 287.6±76.6, 1077.1±77.5, and 466.5±52.6 nmoles/min/mg, respectively.
(§3) Carboxylesterase Assays. CE activity was determined using a spectrophotometric assay with 3 mM o-nitrophenyl acetate (o-NPA) as a substrate (Potter, et al. 1998. Cancer Res. 52:2646-2651; Wierdl, et al. 2001. Cancer Res. 61:5078-5082; Beaufay, et al. 1974. J. Cell Biol. 61:188-200). Data were expressed as nmoles o-nitrophenol produced per minute per milligram of protein. To correct for differences in CE expression within transfected cells, the enzyme activity values were corrected for the level of immuno-reactive CE protein as determined from western analyses.
as §1, with “necessary. Routinely, whole cell sonicates obtained from these pooled populations of cells contained 200-500 nmoles/min/mg of CE activity.” for “necessary.”
as §2

[3] = CPT-11 conversion assay (CPT-11 to SN-38) with extracts of transfected COS-7 cells, HPLC; format: biochemical; conditions: Cos7 cell extracts
Excerpt: (§4) Whole cell sonicates were monitored for CE activity. Results were expressed as nmoles o-nitrophenol produced per minute per milligram of total protein. To correct for differences in CE expression within transfected cells, the enzyme activity values were corrected for the level of immunoreactive CE protein as determined using a western blot analysis.
This was necessary since it was unclear whether the mutations would influence the ability of the CEs to metabolize o-NPA, which is used as a measure of enzyme activity.
CPT-11 Conversion Assays. […] An equal volume of acidified methanol was added to terminate the reactions and particulate matter was removed by centrifugation at 100,000 g for 5 minutes at 4° C. Concentrations of both drugs in the supernatant were then determined by HPLC (Guichard, et al. 1998. Clin. Cancer Res. 4:3089-3094; Morton, et al. 2000. Cancer Res. 60:4206-4210).
(§5) Western Analysis. Cell extracts were separated in 4-20% pre-cast SDS-PAGE gels (Invitrogen, Carlsbad, Calif.) and following transfer to Immobilon-P membranes by electroblotting (Matsuidaira. 1990. Methods Enzymol. 182:602-613), western analysis was performed using known methods (Morton & Potter. 1998. J. Pharmacol. Expt. Therap. 286:1066-1073). CEs were identified using an anti-peptide antibody raised against the C-terminal amino acids […] In all experiments, membranes were re-probed with an anti-TFIID antibody to confirm equal loading, and to correct for any differences in total protein. The molecular weight of immuno-reactive bands was determined using pre-stained molecular weight protein markers (Pierce, Rockford, Ill.). Densitometric quantitation of CE expression was performed using One-Dscan gel analysis software (Scanalytics Inc, Fairfax, Va.).

[4] = Kinetic parameters for CPT-11 hydrolysis by purified recombinant CEs; format: biochemical; conditions: hCE1 and rCE values rest on cited data
Description: To directly compare the abilities of the mammalian CEs to hydrolyze CPT-11, a series of biochemical studies were carried out using the purified proteins in vitro. These experiments determined the Km, Vmax, kcat and kcat/Km values for the different enzymes.
Protein Purification. […] For hiCE, an alternative purification procedure was developed using DEAE chromatography and elution with a pH/salt gradient.
Determination of Kinetic Parameters for Substrate Hydrolysis.

[5] = Carboxylesterase (CE) activity of whole cell sonicates of transiently transfected Cos7 cells, o-NPA substrate; format: biochemical
Description: as §4, §3
as §1, with “necessary. Routinely, whole cell sonicates obtained from these pooled populations of cells contained 200-500 nmoles/min/mg of CE activity.” for “necessary.”
as §5

[6] = substrate: CCc1c2c(nc3ccc(OC(=O)N4CCC(N5CCCCC5)CC4)cc13)-c1cc3c(c(=O)n1C2)COC(=O)[C@]3(O)CC; assay: purified protein, by the assay type; conditions: other: CPT-11 hydrolysis, hCE1m6
[7] = Table 3, Cos7 whole cell sonicates, 3 mM o-NPA, nmoles o-nitrophenol per min per mg
[8] = Table 4, rCE mutant panel, Cos7 extracts, o-NPA

Molecule | fold reduction in the IC50 value for CPT-11 ([1]; U373MG cells expressing intracellular (u373IRESmut6) or secreted (U373IRESmut6C) form, FIG. 4) [fold] | average levels of CE activity ([2]; U373MG cells stably transfected with pIRESneo constructs, monitored over an extended time period) [nmol/min/mg] | CE Activity [2] [nmol/min/mg] | CPT-11 Converting Activity ([3]; Table 4, rCE mutant panel) | Ratio kcat/Km as compared to hCE1 [4] | sensitization of cells to CPT-11 [1] | CE Activity [5, 7] [nmol/min/mg] | CE Activity [5, 8] [nmol/min/mg CE] | CPT-11 Converting Activity ([3]; Table 3, 5 μM CPT-11, 1 hour, corrected for CE protein by western) [pmol/hr/mg CE] | Km [6] [µM]
B1 | ~130 | – | – | – | – | – | – | – | – | –
B2 | – | 1077.1 ± 77.5 | 1016.4 ± 45.5 | Not Detected | 1 | not sensitized | 119.0 ± 5.0 | 329.2 ± 11.6 | – | –
B3 | – | – | 601.0 ± 20.5 | 75.6 pmol/hr/mg CE | 650 | sensitized | 332.7 ± 17.2 | 243.1 ± 17.0 | 41 | –
B4 | – | – | – | – | – | – | – | – | – | 6.25 ± 0.59
